Data as given in patent US20090311271A1 (Pfizer, published 2009).

Key:
[1] = molecular target: T1, recombinant mouse LOX-1 Fc protein (mouse, UniProt Q9EQ09 55-363, limits assumed); assay: AlphaScreen competition: antibody against Bio-oxLDL binding to mFc-mLOX1
T1 construct: The order Fc then LOX-1 is read from the label mFc-mLOX1; also called mFc-mLOX1; not shown: Fc part (label 'mFc')

[2] = molecular target: T1, recombinant mouse LOX-1 Fc protein; assay: as above; remark: listed apart in the source
[3] = molecular target: T2, human LOX-1 expressed on the cell surface (human, UniProt P78380 1-273); assay: flow cytometry, CRP on LOX/CHO cells
T2 construct: whole, on cells; also called CHO/LOX-1; CHO-LOX-1
Protocol: (§1) Cells were analyzed using a Becton Dickinson FACSCalibur® flow cytometer with CellQuest software (Becton Dickinson). Results are presented as the geometric mean fluorescence intensity (MFI).

[4] = molecular target: T2, human LOX-1 expressed on the cell …; assay: flow cytometry, CRP on CHO/LOX-1 cells, detected with rabbit anti-CRP antibody; FACS on CHO/LOX-1 cells, 4 C
Protocol: as §1

[5] = molecular target: T2, human LOX-1 expressed on the cell …; assay: flow cytometry: CRP (0-200 ug/ml) on CHO/LOX-1 cells, 60 min at 4 C, rabbit anti-CRP and labelled secondary antibody, MFI
Protocol: as §1

[6] = molecular target: T1, recombinant mouse LOX-1 Fc protein; assay: AlphaScreen competition: antibody against Bio-CRP binding to mFc-mLOX1
[7] = molecular target: T1, recombinant mouse LOX-1 Fc protein; assay: AlphaScreen competition: antibody against Bio-CRP binding to mFc-mLOX1; Bio-CRP + mFc-mLOX1 competition, not Bio-oxLDL

T1 sequence (Q9EQ09 55-363 limits assumed): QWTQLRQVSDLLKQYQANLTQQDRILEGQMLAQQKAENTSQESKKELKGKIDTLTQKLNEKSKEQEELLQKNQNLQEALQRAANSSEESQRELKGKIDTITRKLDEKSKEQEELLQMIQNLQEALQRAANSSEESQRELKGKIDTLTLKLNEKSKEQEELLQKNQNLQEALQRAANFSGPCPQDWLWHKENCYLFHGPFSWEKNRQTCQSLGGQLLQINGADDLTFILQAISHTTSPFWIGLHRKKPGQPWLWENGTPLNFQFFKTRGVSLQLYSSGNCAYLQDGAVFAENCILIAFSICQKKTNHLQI

| Binder | IC50 [1] | IC50 [2] | Kd [3] | Kd [4] | Kd [5] | IC50 [6] | IC50 [7] |
| --- | --- | --- | --- | --- | --- | --- | --- |
| LOX1-11A2 (antibody, V domains shown, Rat anti-mouse LOX-1 monoclonal antibody; also called rat anti-mouse LOX-1 antibody 11A2) VH: EEQLVESGGGLVQPGGSLKLSCLASGFTLSNYGMNWIRQAPGKGLEWVASISSSSSYFYYADTVKGRFTISREDAKNTLNLQMTSLRSEDTALYYCARGITIAAGFTMDAWGQGTSVTVSS VL: DIQMTQSPTSLSASLGETVSIECRASEDIYNNLAWYQQKSGKSPQLLIYYASTLQDGVPSRFSGSGSGTQFSLKISGMQPEDEGLYYCLQGSKYPRTFGGGTKLELKR | 0.127 µg/mL | 0.127 µg/mL | – | – | – | – | – |
| purified recombinant human CRP (ligand, UniProt P02741 19-224, looked up, biotin label in the AlphaScreen assays (biotin-CRP); unlabelled in ELISA and cell assays, Bought protein; also called C-reactive protein; biotin-CRP) QTDMSRKAFVFPKESDTSYVSLKAPLTKPLKAFTVCLHFYTELSSTRGYSIFSYATKRQDNEILIFWSKDIGYSFTVGGSEILFEVPEVTVAPVHICTSWESASGIVEFWVDGKPRVRKSLKKGYTVGAEASIILGQEQDSFGGNFEGSQSLVGDIGNVNMWDFVLSPDEINTIYLGGPFSPNVLNWRALKYEVQGEVFTKPQLWP | – | – | 747 nM | 86 µg/mL | 86.6 µg/mL | – | – |
| LOX1-33F1 (antibody, V domains shown, Rat anti-mouse LOX-1 monoclonal antibody; also called rat anti-mouse LOX-1 antibody 33F1) VH: QVQLKESGPGLVQPSQTLSLTCTVSGFSLTSHAVNWVRQPPGKGLEWIGAIWSGGTTDYNSGFRSRLSISRDTSKSQVLLKMNSLQTEDTAMYFCARGYDGYYYYAMDVWGQGTSVTVSS VL: DIVMTQSPSSLAVSAGETVTINCKSSQSLLSSRNQKNYLAWYQQKPGQSPKLLIYLASTRESGVPDRFIGSGSGTDFTLTITSVQAEDLADYYCQQHYNYYTFGAGTKLELKR | 0.03 µg/mL | 0.03 µg/mL | – | – | – | 0.193 µg/mL | 0.193 µg/mL |
